The record followed here is PMC60004 (BMC Biochemistry, 2001).

The target of assay [1] is Bombyx mori cadherin-like receptor BtR175, native, 175 kDa (Bombyx mori (endogenous in larval …)). Put plainly: SPR.
The target in assay [2] is Bombyx mori aminopeptidase N, native, 115-kDa (115-120 kDa) Cry1Aa-binding receptor (Bombyx mori (endogenous in larval …)). The assay can be described thus: SPR.

B1: Bacillus thuringiensis Cry1Aa toxin (trypsin-activated, wild type) (domain or fragment)
chain: not shown
For the molecule B1, in assay [1], the Kd came to 2.6 nM, the koff worked out at 3.3e-05 s⁻¹ and the kon is 13000 ± 6.1 M⁻¹ s⁻¹. Moreover, in assay [2], binding was characterised by a dissociation constant (Kd) of 75 nM, the koff came to 0.0015 s⁻¹ and the kon was 20000 M⁻¹ s⁻¹.
